Reference: paper PMC3418226
Blank lines part the entries; values can stand above or below the substance they belong to.

Molecular target: SAP (UniProt O60880)
Test: GST-SAP pull-down, anti-myc blot
Conditions: reference: myc-CD3ζ wild type

binding against the reference (sites Y83): weaker
Substance: CD3ζ (from UniProt P20963) Y83F

binding against the reference (sites Y72): weaker
Substance: CD3ζ (from UniProt P20963) Y72F

binding against the reference (sites Y72,Y83): lost
Substance: CD3ζ (from UniProt P20963) Y72F/Y83F (first ITAM)
